Results on one substance are retold here after paper PMC6486907.

The target of test [1] is Sau-TBD (large fragment of Staphylococcus aureus Pol I with the thioredoxin-binding domain of bacteriophage T7 DNA polymerase inserted) (Staphylococcus aureus | bacteriophage T7).
Test [2] has the same target. The source holds these as a separate data set.

For the substance “thioredoxin from E. coli (TrxA) (from UniProt P0AA25 2-109) (natural protein)”, the DNA polymerase activity of Sau-TBD on primed M13mp18 DNA with 1.5 uM thioredoxin (1316 units/mg protein without thioredoxin) (units/mg protein) in test [1] stood at 2860. In test [2], this substance displayed an average primer extension length of Sau-TBD with thioredoxin, as told in the text (differs from Table 3) of 74.2 nt and a microscopic processivity (PI) of Sau-TBD with thioredoxin, as told in the text (differs from Table 3) of 0.986.
